Reference: the supplement of paper PMC9170038

Tested on: K4 kissing-loop RNA reporter
Test: apparent KD of K4 kissing-loop reporter; higher = weaker reporter binding
Conditions: Eterna round: R107
Description: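 RNA-MaP round R107: designed RNA switches with theophylline, tryptophan, arginine or FMN aptamers are transcribed on-chip within common flanks. They are titrated with a labelled K4 kissing-loop RNA reporter in RNA-MaP buffer (100 mM Tris pH 7.5, 80 mM KCl, 4 mM MgCl2), without ligand or with the indicated ligand. Median apparent KD per design.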

[1] = input ligand: theophylline 20 uM
[2] = input ligand: tryptophan 2.4 mM
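Note: bound reporter read as fluorescence of individual clusters on recovered sequencing chips by microscopy, with normalized cluster intensities fitted with a binding model.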

Sequence	apparent KD of K4 kissing-loop reporter (input ligand: FMN 200 uM) [nM]	apparent KD of K4 kissing-loop reporter (input ligand: arginine 13.2 mM) [nM]	apparent KD of K4 kissing-loop reporter (input ligand: none) [nM]	apparent KD of K4 kissing-loop reporter [1] [nM]	apparent KD of K4 kissing-loop reporter [2] [nM]
AUUAUAUAGGCGGCCGCCACUAGUGAUGUUAGUGAUGUCAUAAUAUAAUGAUAAAUUAUAUUGCGUAGGACCGGGCCUAAAUAUU [#15 K4 Tryptophan B Exclusion]	108	62.3	86.3	100	111
AGCGGCCAGUCGGCCGCCACUCCGGGCAGUGAUGUUGCGAAGUGUCUACUAGAGUGAUGUUCUAAGAGGACCGGGACUGACGUAU [Exclusion Tryptophan B Gf 11]	434	394	534	476	332
ACACGUGUGGCAGGAUAUCGGGCUGUGGAUCGGCUGGUUGCUUAUUCUCGACCAGUGAUGUUGGUACGAGAAGGGCUACCCAGAA [Diorce]	149	113	114	102	123
CCGCUACCCUCAGGAUAUUAAUAUGGAGUGAUGUUCUAUGUCCGAUGGCGGAAACGCCAUCGGGAAUAAGAAGGGAGGGUAGCGG	189	261	482	313	329
UGUAAUUCGGCGGCCGCCACUGACCAUAGCCUUCGAUGGCCAGUGAUGUUGGCCUCUGGCUCUAACAGGACCGGGCCGAAUUGCG [Sotetiqu]	243	133	178	157	116
AACUGUCAAGGACAACAUUACUGCAGUGAUACCAGCAUCGAAAGAUGCCCUUGGCAGCACUAACUUGCAGUGAUGUUGCAAGUAA [BrourdMod 4 - Jieux - Exclusion - Theophylline A]	313	245	256	225	264
GUUGUAUACUGAAGGAGCGAGUAGUGGAAACAUAAACUCAUUGCGAGUGAUGUUCGCAGUACUCAGGUAGGUCGCAGUAAUCGUA [Exclusion Arginine B Gf 10]	534	315	566	453	456
AAUUUUAAUAAUAAAUAAUAAAUAAAUGAUACCAGUAUUUUUUUUUACCCUUGGCAGCGUAUAUAAGGGCAGUGAUGUUGUCAAA [whbob_SS_Theo_A_w58]	205	136	153	196	169
UUUGGUUUCUCGGCCGCCACUCGUUGGUUAUGGGCUUCAGGGAUAUAGUGAUGUUAUGUAUAGAAGAGGACCGGGAGAAGGUUUU [ExTryptoB.Du]	215	368	330	434	239
GAGUCCUUUGAAGGAUAUAGACGUCCCGAUCACUCAGUUGGCGAGCGAGUGAUGUUCGUUCCUAUACUAGAAGGUCAAAGCCUCC [theeternabot_sameState_KL_FMN_B_32]	225	193	211	204	205
UGAUACCAGACGGCCGCCACUGCACCAGUCAAUGACUGAGUGUGGUAAUGCUCAGUGAUGUUGAGUAGGACCGGGUCUGGUAUCU [Mod of Eli's TrypBX 8 v2]	135	124	131	114	124
AAGGUCACUACUACAGUGAUGUUGUGGGAGCAGGAUAUGCAGAAAUGCAGAAGGGCUCGCUCCAAGUGACCGAAUGAAACAUUCA [Omei KL FMN A SS A v1]	1170	876	839	1210	938
GUGUAACGAGGAAACCUCGUUACACCCUCACGAGGACCGGUACGGCCGCCACUCGAGAGCUCGUGAGGAGUGAUGUUCCUCGUGA	695	335	441	435	184
UAUUAAUUGUCAGGAUAUCGUAAACGAGUGAUGUUCGUAUAUCGACGAUAGUCGAUUCUAUCUAAACGAGAAGGGACAUUAUUUA [JR_SSFMNB_Sub008]	346	454	664	516	420
GGUGACAACCAGAGGUGAUGUAUAGAAUCGCGAGGACCGGUACGGCCGCCACUCGUGAAGAGAAAGGAGUGAUGUUCCGUAAUGG [Kazoo C6]	271	249	282	364	124
GUCGGCCGCGCGCAAGCGCGGCCGGCCGAUACCAGCGCGCCGGCGCGCCCUUGGCAGCGGCGCCGAGUGAUGUUCGGCCUGACGU [#2 Same State - Theophylline A Attempt #7 (HarryS)]	710	538	704	601	917
UGUCAUUGGUCUGAUACCAGUUGAUGACGAAUACGUCAACUGGAGUGAUGUUCCAAUAACAACCCUUGGCAGCAGACCGAUGACU [MAT - Same State Theophlline B - Mod of Eli - D3]	557	494	530	953	563
CAACGAGUGAUGGUCGUUGACGGCCAUCCCGAGGAUAUGGGAUUUUCCAGAAGGCGGGAUCGCCCGGAGUGAUGUUCCGUGAUUU [Same State FMN A GF 15]	73.3	228	150	221	116
UGCGCUGUGUCCUAAAAUGUCCUCCGGGAUACCAGAGUCUUUUUAUUCCCUUGGCAGCUUGAGUGAUGUUUGAUGCCGUUCUUGU [xxbxymullin]	811	478	790	519	607
GCCAGUGCACGAAGGAGCGCCGUGACAGGUUACUGCCUUGGGCAGUGAUGUUGCUCAAUCUGGCAGGUAGGUCGCGUGCACUGGC	169	147	170	175	177
GCCGUAGAUUGAAGGAGCGGGCCGUAGUGAUGUUACGCCAAUUUAUCUUUUCUUGAUGUGGCCCAGGUAGGUCGCAAUCUACGGC	241	204	216	207	193
UUAGAGAUCUCAGGAUAUGAGUGAUGUUGAUAUCAAGAUCUGAGAUAGAAUUCUAUCUCAGAUCAAUCAGAAGGGAGAUCUCAUU [AK1.3 Exc FMN B]	172	109	194	411	263

Sequence	apparent KD of K4 kissing-loop reporter (input ligand: FMN 200 uM) [nM]	apparent KD of K4 kissing-loop reporter (input ligand: arginine 13.2 mM) [nM]	apparent KD of K4 kissing-loop reporter (input ligand: none) [nM]	apparent KD of K4 kissing-loop reporter [1] [nM]	apparent KD of K4 kissing-loop reporter [2] [nM]
CUUGUACAUGCCGAGGUAGGUGCGGGUUAGCGAGGACCGGUACGGCCGCCACUCGCCAAGUGAUGUUUGGUCCUUUGGAUCGGCA	1220	453	366	690	183
UGUGUACCGGGAAGGAGCGUGAAUGAGAAUGGAUAUAGUGAUGUUAUGUAUACGAACGAAUCGCAGGUAGGUCGCCCGGAUCCCU [SSArgB.Z]	513	320	677	396	461
AAGUCAUAGGCAGGAUAUGCAUAGUAAUAAGGCCAUAUAUACGUAUAGAGUGAUGUUUUGUACCAGGCAGAAGGGCUACAUCAGU [FMN B Excl V7 (+3A)]	550	506	594	643	470
UGUAUGUGAUUUGAUACCAGACCAGCUGGUGGUUCACGAGUGAUGUUCGUGUUGGUUUGGGUCCCUUGGCAGCAAAUCGCAUACU [KL-SSTheoB12]	159	121	144	128	140
GGAUGCAUAGUAGAUACCAGCAAGCUCGGAUAGUGAUGUUGUUCGCAGUCAUUUCGGUAGUGCCCUUGGCAGCUAGACGCCCGAU [theeternabot_exclusion_KL_Theo_B_36]	109	92.7	104	92.3	97.5
AAGCAGUCACUCGAACCCAUCGAAGAUGGGCGAGGACCGGUACGGCCGCCACUCGGAGUGAUGUUCCGCAGACUGCAAAAUAAAA	679	265	339	249	164
GCGUGGCAGGCGGCCGCCACUCGGACGAGUCACAGUGAUGUUGUGGUUUGCCAGUCGUCUUCAUCGAGGACCGGGUUUGUUGCGC [Exclusion Tryptophan B GF 18]	206	169	212	159	171
UCGACUGUGUCGGCCGCCACUGGUAUAAACGGACUAUAACGACAUGAGUGAUGUUCAUGUUCGUCUAGGACCGGGACACAAUGUA [Tryp B Ex t3]	102	81.8	96.7	81.7	90
AUGGGUCCACGAAGGAGCGCCGUGCAGUGAUGUUGCAGUUAGAUCCAGUGAUGUUUGGGCCGGCAGGUAGGUCGCGUGGAUUUAU [Exclusion Arginine B GF 22]	249	199	249	243	222
GGACGCCGGUCGGCCGCCACUCACAGCAGUGAUGUUGCUGAGAAUGUAGCGGAGUGAUGUUCCGAGAGGACCGGGACUGCAGUUU [Same State Tryptophan B GF 9]	240	157	198	186	210
AGACUACCACACUGUCAAUAGACAGUGAGCUAGGAUAUGCUGAUAAGCAGAAGGAGUGAUGUUCCGAGGUAGUCAAUAAAAUAAU [FmnAX 13 G29+G66]	395	273	261	357	257
UGGACCUGACUCGAUAAGAGUCAAGGAGAUACCAGCCACGAAAGUGGCCCUUGGCAGCUCUGCCAGUGAUGUUGGUCAAGGUCCU [#SwitchBubble 7 #StaticStem]	976	696	912	393	776
UUUCCAGAUAAGUGGGAACGCUCCAUAACAGAGGAUAUCAGAGCGCUGAGAAGGCUGUUUUACAGUGAUGUUGUAAGUGUGGAGC [#10 K4 FMN A Same State]	158	272	299	282	252
GACGUGCGAGAGACCGCUCUACCUUGAGAUCGAGGACCGGUACGGCCGCCACUCGGUGUUUAACGUCGAUCCCAGUGAUGUUGGA [theeternabot_sameState_KL_Trp_A_21]	521	230	429	450	234
GGUGCUGUUUGUGCCGCCUUCCUCGUUCCUCGAGGACCGGUACGGCCGCCACUCGAGUGAUGUUUGGGUAGCGAUCCCUGCUAGU [Bdazzled - #13 Exc. Tryptophan A]	892	621	963	658	799
GCCUAGGCUCGAAAGAGCCUAGGCUUGUCUCAGGAUAUCUGGAAACAGAGAAGGGAGCUACUAGUGAUGUUAGGAAUUCCCUAAG	149	122	112	92.3	98
AAAAUUGCGGUCGAUAGAACUUUUUGCUUACGAGGACCGGUACGGCCGCCACUCGAGUCAAGUGAUGUUUGAUUUUCUAUUAUUA [JR_ExcTryptoA_Sub014]	112	166	141	176	98.5
GCUAUAGUGUUAGAUACCAGUAUCCUGCAAAGCCAUCAAAUGCAGUGAUGUUGCAUAAACUACCCUUGGCAGCUAAUUGGGCUCU [theeternabot_exclusion_KL_Theo_B_49]	226	201	213	213	187
GCCUAGGCUCGAAAGAGCCUAGGCUUUACUCAGGAUAUCUGGAAACAGAGAAGGGAGCUACUAGUGAUGUUAGGAAUUCCCUAAG	45.9	80.3	133	141	87.8
ACACUAUCGUCAUAGACGGUAGUGAAAUGUGAGGAUAUGAGUGAUGUUAGAAGGCACAAAGACUGUAUCGAAUAGAUACAGUCAA [FmnA 6 #K4BetweenAptamer #OpenEnded]	558	96.5	139	127	120
UAGUCAUACAGAGGAUAUCGUAUGAGUGAUGUUCAUACGACAUAAUCAAAUUGUAUUGAUGUUCGACGAGAAGGCUGUAUGACUA [FMN B Ex t1]	221	103	124	117	124
